B1: MMP1 (parent)
chain: FHGTRQYKFDPKTKRILTLQKANS

94 variants from the supplement of paper PMC10567573 can be followed below.
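Further: lentivirally expressed fusions sorted by FACS into six bins by GFP to DsRed ratio, PSI derived from sequencing read proportions per bin multiplied by bin number.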

This data set covers variants of B1. In words: protein stability index of a GFP-peptide fusion (GPS, HEK-293T) (PSI 1-6); higher = more stable. To be noted: c terminus: a fixed tail appended.
Consider FHGTGQYKFDPKTKRILTLQKANS [R5G], for which the protein stability index was determined as 1.88.

Consider FHGTKQYKFDPKTKRILTLQKANS [R5K], for which the protein stability index turned out to be 2.55.

Take FHGTCQYKFDPKTKRILTLQKANS [R5C]: the protein stability index was 1.79.

For the variant FHGTAQYKFDPKTKRILTLQKANS [R5A], the protein stability index worked out at 1.8.

Consider FHGTWQYKFDPKTKRILTLQKANS [R5W], for which the protein stability index worked out at 2.45.

FHGTYQYKFDPKTKRILTLQKANS [R5Y]: the protein stability index was determined as 2.13.

For the variant FHGTDQYKFDPKTKRILTLQKANS [R5D], the protein stability index was found to be 2.38.

With FHGTVQYKFDPKTKRILTLQKANS [R5V], the protein stability index is 2.04.

Turning to FHGTQQYKFDPKTKRILTLQKANS [R5Q], the protein stability index was 1.83.

Turning to FHGTIQYKFDPKTKRILTLQKANS [R5I], the protein stability index worked out at 2.21.

As for FHGTEQYKFDPKTKRILTLQKANS [R5E], the protein stability index worked out at 2.02.

FHGTPQYKFDPKTKRILTLQKANS [R5P]: the protein stability index was determined as 2.32.

For FHGTNQYKFDPKTKRILTLQKANS [R5N], the protein stability index is 1.98.

For FHGTTQYKFDPKTKRILTLQKANS [R5T], the protein stability index was determined as 1.68.

Regarding FHGTLQYKFDPKTKRILTLQKANS [R5L], the protein stability index was 2.2.

As to FHGTMQYKFDPKTKRILTLQKANS [R5M], the protein stability index came out at 2.3.

With FHGTFQYKFDPKTKRILTLQKANS [R5F], the protein stability index was 1.7.

In the case of FHGTHQYKFDPKTKRILTLQKANS [R5H], the protein stability index came out at 2.07.

Turning to FHGTSQYKFDPKTKRILTLQKANS [R5S], the protein stability index worked out at 1.72.

As for FHGTRCYKFDPKTKRILTLQKANS [Q6C], the protein stability index was determined as 1.9.

Take FHGTRIYKFDPKTKRILTLQKANS [Q6I]: the protein stability index came to 2.39.

Take FHGTRKYKFDPKTKRILTLQKANS [Q6K]: the protein stability index turned out to be 1.92.

Regarding FHGTRWYKFDPKTKRILTLQKANS [Q6W], the protein stability index is 2.63.

Turning to FHGTRRYKFDPKTKRILTLQKANS [Q6R], the protein stability index was found to be 1.5.

With FHGTRAYKFDPKTKRILTLQKANS [Q6A], the protein stability index is 2.15.

Turning to FHGTRYYKFDPKTKRILTLQKANS [Q6Y], the protein stability index was 2.04.

Take FHGTRGYKFDPKTKRILTLQKANS [Q6G]: the protein stability index is 1.61.

Turning to FHGTREYKFDPKTKRILTLQKANS [Q6E], the protein stability index is 2.12.

Turning to FHGTRFYKFDPKTKRILTLQKANS [Q6F], the protein stability index amounted to 3.64.

Turning to FHGTRLYKFDPKTKRILTLQKANS [Q6L], the protein stability index was 1.83.

Consider FHGTRVYKFDPKTKRILTLQKANS [Q6V], for which the protein stability index amounted to 2.96.

As to FHGTRTYKFDPKTKRILTLQKANS [Q6T], the protein stability index worked out at 1.6.

On to FHGTRDYKFDPKTKRILTLQKANS [Q6D], for which the protein stability index stood at 1.87.

In the case of FHGTRMYKFDPKTKRILTLQKANS [Q6M], the protein stability index was 1.82.

In the case of FHGTRNYKFDPKTKRILTLQKANS [Q6N], the protein stability index stood at 1.92.

With FHGTRPYKFDPKTKRILTLQKANS [Q6P], the protein stability index stood at 1.46.

For the variant FHGTRHYKFDPKTKRILTLQKANS [Q6H], the protein stability index worked out at 4.5.

For the variant FHGTRSYKFDPKTKRILTLQKANS [Q6S], the protein stability index turned out to be 1.67.

Consider FHGTRQYEFDPKTKRILTLQKANS [K8E], for which the protein stability index was 2.21.

With FHGTRQYFFDPKTKRILTLQKANS [K8F], the protein stability index came out at 2.76.

On to FHGTRQYIFDPKTKRILTLQKANS [K8I], for which the protein stability index was determined as 2.49.

For the variant FHGTRQYGFDPKTKRILTLQKANS [K8G], the protein stability index turned out to be 2.24.

FHGTRQYAFDPKTKRILTLQKANS [K8A]: the protein stability index stood at 2.04.

For the variant FHGTRQYLFDPKTKRILTLQKANS [K8L], the protein stability index turned out to be 1.64.

As for FHGTRQYCFDPKTKRILTLQKANS [K8C], the protein stability index turned out to be 2.73.

For FHGTRQYHFDPKTKRILTLQKANS [K8H], the protein stability index was 1.76.

Consider FHGTRQYDFDPKTKRILTLQKANS [K8D], for which the protein stability index came out at 2.07.

For DHGTRQYKFDPKTKRILTLQKANS [F1D], the protein stability index is 3.65.

For the variant RHGTRQYKFDPKTKRILTLQKANS [F1R], the protein stability index is 3.31.

Consider IHGTRQYKFDPKTKRILTLQKANS [F1I], for which the protein stability index turned out to be 3.12.

In the case of YHGTRQYKFDPKTKRILTLQKANS [F1Y], the protein stability index was 2.51.

Regarding VHGTRQYKFDPKTKRILTLQKANS [F1V], the protein stability index is 3.18.

Regarding CHGTRQYKFDPKTKRILTLQKANS [F1C], the protein stability index was 2.95.

For the variant NHGTRQYKFDPKTKRILTLQKANS [F1N], the protein stability index was found to be 3.34.

In the case of PHGTRQYKFDPKTKRILTLQKANS [F1P], the protein stability index turned out to be 3.17.

For the variant LHGTRQYKFDPKTKRILTLQKANS [F1L], the protein stability index came out at 3.05.

On to KHGTRQYKFDPKTKRILTLQKANS [F1K], for which the protein stability index was determined as 3.33.

Consider THGTRQYKFDPKTKRILTLQKANS [F1T], for which the protein stability index amounted to 3.4.

For SHGTRQYKFDPKTKRILTLQKANS [F1S], the protein stability index was found to be 3.43.

Take GHGTRQYKFDPKTKRILTLQKANS [F1G]: the protein stability index came out at 3.44.

Regarding AHGTRQYKFDPKTKRILTLQKANS [F1A], the protein stability index was determined as 3.

Regarding WHGTRQYKFDPKTKRILTLQKANS [F1W], the protein stability index worked out at 2.35.

Take EHGTRQYKFDPKTKRILTLQKANS [F1E]: the protein stability index is 3.91.

For the variant HHGTRQYKFDPKTKRILTLQKANS [F1H], the protein stability index worked out at 3.12.

For QHGTRQYKFDPKTKRILTLQKANS [F1Q], the protein stability index is 3.32.

For MHGTRQYKFDPKTKRILTLQKANS [F1M], the protein stability index is 3.13.

With FTGTRQYKFDPKTKRILTLQKANS [H2T], the protein stability index stood at 2.04.

For FVGTRQYKFDPKTKRILTLQKANS [H2V], the protein stability index is 1.91.

Turning to FWGTRQYKFDPKTKRILTLQKANS [H2W], the protein stability index was 2.29.

Take FNGTRQYKFDPKTKRILTLQKANS [H2N]: the protein stability index is 2.33.

As to FQGTRQYKFDPKTKRILTLQKANS [H2Q], the protein stability index worked out at 2.19.

For FIGTRQYKFDPKTKRILTLQKANS [H2I], the protein stability index stood at 2.47.

As to FRGTRQYKFDPKTKRILTLQKANS [H2R], the protein stability index was determined as 3.04.

On to FLGTRQYKFDPKTKRILTLQKANS [H2L], for which the protein stability index was determined as 2.36.

As to FDGTRQYKFDPKTKRILTLQKANS [H2D], the protein stability index was 3.55.

As to FKGTRQYKFDPKTKRILTLQKANS [H2K], the protein stability index was found to be 2.57.

For FGGTRQYKFDPKTKRILTLQKANS [H2G], the protein stability index came to 2.55.

As for FYGTRQYKFDPKTKRILTLQKANS [H2Y], the protein stability index amounted to 2.35.

With FAGTRQYKFDPKTKRILTLQKANS [H2A], the protein stability index came out at 1.69.

Turning to FSGTRQYKFDPKTKRILTLQKANS [H2S], the protein stability index was 2.39.

FMGTRQYKFDPKTKRILTLQKANS [H2M]: the protein stability index amounted to 2.53.

Consider FPGTRQYKFDPKTKRILTLQKANS [H2P], for which the protein stability index came to 1.68.

FFGTRQYKFDPKTKRILTLQKANS [H2F]: the protein stability index amounted to 2.34.

For the variant FCGTRQYKFDPKTKRILTLQKANS [H2C], the protein stability index turned out to be 1.88.

As to FEGTRQYKFDPKTKRILTLQKANS [H2E], the protein stability index stood at 3.03.

As to FHDTRQYKFDPKTKRILTLQKANS [G3D], the protein stability index was 2.29.

Turning to FHWTRQYKFDPKTKRILTLQKANS [G3W], the protein stability index amounted to 2.02.

On to FHTTRQYKFDPKTKRILTLQKANS [G3T], for which the protein stability index stood at 2.1.

As for FHPTRQYKFDPKTKRILTLQKANS [G3P], the protein stability index came to 2.68.

With FHATRQYKFDPKTKRILTLQKANS [G3A], the protein stability index came to 2.02.

As to FHQTRQYKFDPKTKRILTLQKANS [G3Q], the protein stability index stood at 1.67.

As to FHLTRQYKFDPKTKRILTLQKANS [G3L], the protein stability index is 1.63.

In the case of FHVTRQYKFDPKTKRILTLQKANS [G3V], the protein stability index amounted to 2.3.

Take FHNTRQYKFDPKTKRILTLQKANS [G3N]: the protein stability index was 2.77.
